In PMC6650547 (2019):

Target: T1, His-SUDV-NP(34-367) (Sudan virus (SUDV), strain Boniface, UniProt Q9QP77 34-367)
T1 chain: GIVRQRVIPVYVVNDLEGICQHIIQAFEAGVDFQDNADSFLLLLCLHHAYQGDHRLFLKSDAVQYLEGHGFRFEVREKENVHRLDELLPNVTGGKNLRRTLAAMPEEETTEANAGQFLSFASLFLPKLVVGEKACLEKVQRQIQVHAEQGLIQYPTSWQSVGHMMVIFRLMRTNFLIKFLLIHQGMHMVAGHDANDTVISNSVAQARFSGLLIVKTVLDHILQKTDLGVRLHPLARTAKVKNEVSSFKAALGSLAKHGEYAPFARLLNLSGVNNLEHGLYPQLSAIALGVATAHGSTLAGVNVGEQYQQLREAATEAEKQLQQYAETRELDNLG
Experiment: BLI

MQQDRTYRHHGPEVSGWFSEQLMTGKIPLTEVFV [SUDV VP35 wild-type chaperone domain peptide (residues 1 to 34)]
koff: 0.00583 s⁻¹
